How the values were obtained:
Assay in all cases: cell-based or functional assay
[1] = target: HIV-1 JR-CSF Env D417A (HIV-1 (isolate JR-CSF)) (UniProt P20871)
[2] = target: HIV-1 JR-CSF Env N302A (HIV-1 JR-CSF) (UniProt P20871)
[3] = target: HIV-1 JR-CSF Env N339A (HIV-1 isolate JR-CSF) (UniProt P20871)
[4] = target: HIV-1 JR-CSF Env K305A (HIV-1 JR-CSF) (UniProt P20871)
[5] = target: Env of the clade G HIV-1 pseudoviruses of the cross-clade 162-pseudovirus panel (n = 15)
[6] = target: HIV-1 JR-CSF Env P313A (HIV-1 JR-CSF) (UniProt P20871)
[7] = target: HIV-1 JR-CSF Env D325A (HIV-1 isolate JR-CSF) (UniProt P20871)
[8] = target: Env of the clade B HIV-1 pseudoviruses of the cross-clade 162-pseudovirus panel (n = 31)
[9] = target: Env of the clade C HIV-1 pseudoviruses of the cross-clade 162-pseudovirus panel (n = 27)
[10] = target: HIV-1 JR-CSF Env K343A (HIV-1 isolate JR-CSF) (UniProt P20871)
[11] = target: HIV-1 JR-CSF Env T388A (HIV-1 (isolate JR-CSF)) (UniProt P20871)
[12] = target: HIV-1 JR-CSF Env S387A (HIV-1 (isolate JR-CSF)) (UniProt P20871)
[13] = target: HIV-1 JR-CSF Env S393A (HIV-1 (isolate JR-CSF)) (UniProt P20871)
[14] = target: HIV-1 JR-CSF Env I326A (HIV-1 isolate JR-CSF) (UniProt P20871)
[15] = target: Env of all HIV-1 pseudoviruses of the cross-clade 162-pseudovirus panel (n = 162)
[16] = target: HIV-1 JR-CSF Env W395A (HIV-1 (isolate JR-CSF)) (UniProt P20871)
[17] = target: HIV-1 JR-CSF Env I424A (HIV-1 (isolate JR-CSF)) (UniProt P20871)
[18] = target: HIV-1 JR-CSF Env I423A (HIV-1 (isolate JR-CSF)) (UniProt P20871)
[19] = target: HIV-1 JR-CSF Env I309A (HIV-1 JR-CSF) (UniProt P20871)
[20] = target: Env of the clade AG HIV-1 pseudoviruses of the cross-clade 162-pseudovirus panel (n = 10)
[21] = target: HIV-1 JR-CSF Env N396A (HIV-1 (isolate JR-CSF)) (UniProt P20871)
[22] = target: HIV-1 JR-CSF Env T320A (HIV-1 isolate JR-CSF) (UniProt P20871)
[23] = target: HIV-1 JR-CSF Env F317A (HIV-1 isolate JR-CSF) (UniProt P20871)
[24] = target: HIV-1 JR-CSF Env L416A (HIV-1 (isolate JR-CSF)) (UniProt P20871)
[25] = target: HIV-1 Env of isolate MGRM-C-026 (HIV-1)
[26] = target: HIV-1 JR-CSF Env I414A (HIV-1 (isolate JR-CSF)) (UniProt P20871)
[27] = target: HIV-1 JR-CSF Env S334A (HIV-1 isolate JR-CSF) (UniProt P20871)
[28] = target: HIV-1 JR-CSF Env V292A (HIV-1 JR-CSF) (UniProt P20871)
[29] = target: HIV-1 JR-CSF Env T319A (HIV-1 isolate JR-CSF) (UniProt P20871)
[30] = target: HIV-1 JR-CSF Env T202A (HIV-1 JR-CSF) (UniProt P20871)
[31] = target: HIV-1 JR-CSF Env I307A (HIV-1 JR-CSF) (UniProt P20871)
[32] = target: HIV-1 JR-CSF Env N262A (HIV-1 JR-CSF) (UniProt P20871)
[33] = target: HIV-1 JR-CSF Env S199A (HIV-1 JR-CSF) (UniProt P20871)
[34] = target: HIV-1 JR-CSF Env N241A (HIV-1 JR-CSF) (UniProt P20871)
[35] = target: HIV-1 JR-CSF Env I415A (HIV-1 (isolate JR-CSF)) (UniProt P20871)
[36] = target: HIV-1 JR-CSF Env T297A (HIV-1 JR-CSF) (UniProt P20871)
[37] = target: HIV-1 JR-CSF Env R315A (HIV-1 isolate JR-CSF) (UniProt P20871)
[38] = target: HIV-1 Env of isolate 92TH021 (HIV-1)
[39] = target: HIV-1 JR-CSF Env F210A (HIV-1 JR-CSF) (UniProt P20871)

Row | Binder | Fold IC50 increase relative to wild-type [1] | Fold IC50 increase relative to wild-type [2] | Fold IC50 increase relative to wild-type [3] | Median IC50 against viruses neutralized with an IC50 <50 µg/ml [5] | Fold IC50 increase relative to wild-type [6] | Fold IC50 increase relative to wild-type [7] | Median IC50 against viruses neutralized with an IC50 <50 µg/ml [8] | Median IC50 against viruses neutralized with an IC50 <50 µg/ml [9] | Fold IC50 increase relative to wild-type [10] | Fold IC50 increase relative to wild-type [11] | Fold IC50 increase relative to wild-type [12] | Fold IC50 increase relative to wild-type [13] | Fold IC50 increase relative to wild-type [14] | Median IC50 against viruses neutralized with an IC50 <50 µg/ml [15] | Fold IC50 increase relative to wild-type [16] | Fold IC50 increase relative to wild-type [17] | Fold IC50 increase relative to wild-type [18] | Fold IC50 increase relative to wild-type [19] | Median IC50 against viruses neutralized with an IC50 <50 µg/ml [20] | Fold IC50 increase relative to wild-type [21] | also measured
1 | PGT-123 (antibody, V domains shown) VH: QLHLQESGPGLVKPPETLSLTCSVSGASINDAYWSWIRQSPGKRPEWVGYVHHSGDTNYNPSLKRRVTFSLDTAKNEVSLKLVDLTAADSATYFCARALHGKRIYGIVALGELFTYFYMDVWGKGTAVTVSS VL: SSMSVSPGETAKISCGKESIGSRAVQWYQQKPGQPPSLIIYNNQDRPAGVPERFSASPDFRPGTTATLTITNVDAEDEADYYCHIYDARGGTNWVFDRGTTLTVL | 0.7 fold | 1.3 fold | 0.8 fold | 0.04 mg/L | 0.2 fold | 64 fold | 0.02 mg/L | 0.01 mg/L | 0.3 fold | 0.2 fold | 0.9 fold | 0.6 fold | 0.4 fold | 0.03 mg/L | 0.4 fold | 0.5 fold | 1.5 fold | 1.6 fold | 0.61 mg/L | 1.2 fold | Fold IC50 increase relative to wild-type [4]: 1.9 fold; Fold IC50 increase relative to wild-type [22]: 0.7 fold; Fold IC50 increase relative to wild-type [23]: 3.1 fold; Fold IC50 increase relative to wild-type [24]: 0.9 fold; Primary Neutralization Index (B cell culture well 4858 P8) [25]: 33.8; Fold IC50 increase relative to wild-type [26]: 0.3 fold; Fold IC50 increase relative to wild-type [27]: > 50 fold; Fold IC50 increase relative to wild-type [28]: 1.7 fold; Fold IC50 increase relative to wild-type [29]: 0.4 fold; Fold IC50 increase relative to wild-type [30]: 1.2 fold; Fold IC50 increase relative to wild-type [31]: 5.9 fold; Fold IC50 increase relative to wild-type [32]: 0.5 fold; Fold IC50 increase relative to wild-type [33]: 1.1 fold; Fold IC50 increase relative to wild-type [34]: 0.8 fold; Fold IC50 increase relative to wild-type [35]: 0.4 fold; Fold IC50 increase relative to wild-type [36]: 0.3 fold; Fold IC50 increase relative to wild-type [37]: 0.7 fold; IC50 (µg/mL), pseudovirus neutralization [38]: > 50 µg/mL; Fold IC50 increase relative to wild-type [39]: 2.8 fold
2 | PGT-135 (antibody, V domains shown) VH: QLQMQESGPGLVKPSETLSLSCTVSGDSIRGGEWGDKDYHWGWVRHSAGKGLEWIGSIHWRGTTHYKESLRRRVSMSIDTSRNWFSLRLASVTAADTAVYFCARHRHHDVFMLVPIAGWFDVWGPGVQVTVSS VL: EIVMTQSPDTLSVSPGETVTLSCRASQNINKNLAWYQYKPGQSPRLVIFETYSKIAAFPARFVASGSGTEFTLTINNMQSEDVAVYYCQQYEEWPRTFGQGTKVDIK | 5 fold | 0.8 fold | 1.2 fold | 0.14 mg/L | 0.5 fold | 0.5 fold | 0.15 mg/L | 0.05 mg/L | 1.1 fold | 0.1 fold | 0.6 fold | 0.9 fold | 1.2 fold | 0.17 mg/L | 0.6 fold | 0.1 fold | 0.1 fold | 0.3 fold | 27.4 mg/L | 1 fold | Fold IC50 increase relative to wild-type [4]: 0.2 fold; Fold IC50 increase relative to wild-type [22]: 0.5 fold; Fold IC50 increase relative to wild-type [23]: 0.5 fold; Fold IC50 increase relative to wild-type [24]: 1.2 fold; Primary Neutralization Index (B cell culture well 5343 B8) [25]: 6.5; Primary Neutralization Index (B cell culture well 5344 E16) [25]: 3.6; Fold IC50 increase relative to wild-type [26]: 1.2 fold; Fold IC50 increase relative to wild-type [27]: > 30 fold; Fold IC50 increase relative to wild-type [28]: 2 fold; Fold IC50 increase relative to wild-type [29]: 0.4 fold; Fold IC50 increase relative to wild-type [30]: 1.8 fold; Fold IC50 increase relative to wild-type [31]: 0.3 fold; Fold IC50 increase relative to wild-type [32]: 2.1 fold; Fold IC50 increase relative to wild-type [33]: 0.3 fold; Fold IC50 increase relative to wild-type [34]: 0.1 fold; Fold IC50 increase relative to wild-type [35]: 5 fold; Fold IC50 increase relative to wild-type [36]: > 30 fold; Fold IC50 increase relative to wild-type [37]: 1.8 fold; Fold IC50 increase relative to wild-type [39]: 1.3 fold
3 | PGT-131 (antibody, V domains shown) VH: QVQLQESGPGLVKPSETLSLTCTVSGDSINTGHHYWGWVRQVPGKGPEWIAHIHYNTAVLHNPALKSRVTISIFTLKNLITLSLSNVTAADTAVYFCVRSGGDILYYIEWQKPHWFYPWGPGILVTVSS VL: QSALTQPPSASGSLGQSLTISCSGTGSDIGSWNFVSWYQQFPGRAPNLIIFEVNRRRSGVPDRFSGSKSGNTASLTVSGLRSEDEAEYFCSSLSGRWDIVFGGGTKVTVL | 1 fold | 1 fold | 1 fold | 3.54 mg/L | 0.52 fold | > 170 fold | 0.07 mg/L | 0.78 mg/L | 1.1 fold | 0.6 fold | 1.1 fold | 1.1 fold | 1.7 fold | 0.52 mg/L | 0.5 fold | 4.8 fold | > 80 fold | 8.8 fold | 0.18 mg/L | 0.9 fold | Fold IC50 increase relative to wild-type [22]: 4.5 fold; Fold IC50 increase relative to wild-type [23]: 96 fold; Fold IC50 increase relative to wild-type [24]: 1 fold; Primary Neutralization Index (B cell culture well 5136 H1) [25]: 1.2; Fold IC50 increase relative to wild-type [26]: 1 fold; Fold IC50 increase relative to wild-type [27]: 0.4 fold; Fold IC50 increase relative to wild-type [28]: 1.4 fold; Fold IC50 increase relative to wild-type [29]: 0.9 fold; Fold IC50 increase relative to wild-type [30]: 2.7 fold; Fold IC50 increase relative to wild-type [31]: > 170 fold; Fold IC50 increase relative to wild-type [32]: 0.4 fold; Fold IC50 increase relative to wild-type [33]: 1.6 fold; Fold IC50 increase relative to wild-type [34]: 0.7 fold; Fold IC50 increase relative to wild-type [35]: 0.6 fold; Fold IC50 increase relative to wild-type [36]: 1.2 fold; Fold IC50 increase relative to wild-type [37]: 0.7 fold; Primary Neutralization Index (B cell culture well 5136 H1) [38]: 354; Fold IC50 increase relative to wild-type [39]: 1 fold
